Assay results as given in patent US20180177810A1 (UNIVERSITY OF NOTRE DAME DU LAC, published 2018).
Where no end group is shown, it is not given here.

Molecular target: T1, Very late antigen-4 (VLA-4; α4β1 integrin) on multiple myeloma cell lines (human, UniProt P13612 34-1032; P05556 21-798)
T1 construct: whole, on cells; also called VLA-4 receptor
Assay: peptide screen of Example 1 (FITC-labeled peptides on MM cells, flow cytometry)

T1 sequence (P13612 34-1032, chain 1 of 2): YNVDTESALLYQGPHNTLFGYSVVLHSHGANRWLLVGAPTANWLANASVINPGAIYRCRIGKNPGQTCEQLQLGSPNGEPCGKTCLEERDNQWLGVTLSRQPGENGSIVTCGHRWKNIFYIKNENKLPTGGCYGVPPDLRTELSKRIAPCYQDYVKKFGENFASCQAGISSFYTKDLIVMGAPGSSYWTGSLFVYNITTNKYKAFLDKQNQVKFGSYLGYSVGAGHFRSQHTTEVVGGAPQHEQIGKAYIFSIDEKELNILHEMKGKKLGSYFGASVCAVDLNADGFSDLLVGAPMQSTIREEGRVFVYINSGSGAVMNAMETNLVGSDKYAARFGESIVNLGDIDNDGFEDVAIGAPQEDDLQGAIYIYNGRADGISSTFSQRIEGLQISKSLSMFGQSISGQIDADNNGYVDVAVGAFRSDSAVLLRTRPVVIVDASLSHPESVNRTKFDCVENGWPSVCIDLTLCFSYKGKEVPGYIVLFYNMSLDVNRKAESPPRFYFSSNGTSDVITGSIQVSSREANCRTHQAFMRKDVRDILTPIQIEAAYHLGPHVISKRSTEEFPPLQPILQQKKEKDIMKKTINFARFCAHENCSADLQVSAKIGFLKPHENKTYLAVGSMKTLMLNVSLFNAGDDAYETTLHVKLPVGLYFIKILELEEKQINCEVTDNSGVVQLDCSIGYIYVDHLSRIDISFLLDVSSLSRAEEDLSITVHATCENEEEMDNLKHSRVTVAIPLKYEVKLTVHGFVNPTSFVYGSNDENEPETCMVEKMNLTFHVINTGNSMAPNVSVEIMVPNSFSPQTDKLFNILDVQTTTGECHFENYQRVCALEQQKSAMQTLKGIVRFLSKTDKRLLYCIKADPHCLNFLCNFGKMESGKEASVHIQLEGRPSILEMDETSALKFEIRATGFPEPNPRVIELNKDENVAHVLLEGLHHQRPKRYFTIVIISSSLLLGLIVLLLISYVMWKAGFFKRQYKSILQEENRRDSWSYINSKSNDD
T1 sequence (P05556 21-798, chain 2 of 2): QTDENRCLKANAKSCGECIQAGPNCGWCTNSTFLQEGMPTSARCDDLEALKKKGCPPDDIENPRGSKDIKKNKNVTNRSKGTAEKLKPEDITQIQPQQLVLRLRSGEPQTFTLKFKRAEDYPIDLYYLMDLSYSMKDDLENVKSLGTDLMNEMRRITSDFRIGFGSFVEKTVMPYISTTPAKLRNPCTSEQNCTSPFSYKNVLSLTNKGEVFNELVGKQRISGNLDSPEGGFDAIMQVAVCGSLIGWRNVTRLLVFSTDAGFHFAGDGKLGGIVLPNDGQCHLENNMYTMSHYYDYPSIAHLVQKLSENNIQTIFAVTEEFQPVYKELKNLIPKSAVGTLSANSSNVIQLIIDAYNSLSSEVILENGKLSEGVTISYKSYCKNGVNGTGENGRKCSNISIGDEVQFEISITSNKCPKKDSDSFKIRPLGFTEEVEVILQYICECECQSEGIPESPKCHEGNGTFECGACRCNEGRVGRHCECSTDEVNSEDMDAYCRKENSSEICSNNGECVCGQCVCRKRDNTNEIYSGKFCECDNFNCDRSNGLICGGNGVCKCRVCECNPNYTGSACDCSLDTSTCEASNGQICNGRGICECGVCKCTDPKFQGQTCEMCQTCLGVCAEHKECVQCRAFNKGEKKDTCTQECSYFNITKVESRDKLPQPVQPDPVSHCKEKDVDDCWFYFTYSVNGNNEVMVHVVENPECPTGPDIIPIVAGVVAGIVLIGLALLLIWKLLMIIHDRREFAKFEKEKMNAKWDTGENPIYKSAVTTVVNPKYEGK

- binding result: binds
B1: peptide sequence CFLDFP (peptide)
peptide: CFLDFP
modifications: not fully specified (C-terminus); also: FITC-labelled version synthesized for binding assays
notes: The assay for this peptide is not described separately
